The source of these data is patent US20220119490A1 (Genentech, published 2022).

For assay [1], the target named is T1, PTPRD G285E variant extracellular domain (human, UniProt P23468 21-1265).
T1 construct: extracellular domain; also called IG3 mutant
T1 sequence (looked up): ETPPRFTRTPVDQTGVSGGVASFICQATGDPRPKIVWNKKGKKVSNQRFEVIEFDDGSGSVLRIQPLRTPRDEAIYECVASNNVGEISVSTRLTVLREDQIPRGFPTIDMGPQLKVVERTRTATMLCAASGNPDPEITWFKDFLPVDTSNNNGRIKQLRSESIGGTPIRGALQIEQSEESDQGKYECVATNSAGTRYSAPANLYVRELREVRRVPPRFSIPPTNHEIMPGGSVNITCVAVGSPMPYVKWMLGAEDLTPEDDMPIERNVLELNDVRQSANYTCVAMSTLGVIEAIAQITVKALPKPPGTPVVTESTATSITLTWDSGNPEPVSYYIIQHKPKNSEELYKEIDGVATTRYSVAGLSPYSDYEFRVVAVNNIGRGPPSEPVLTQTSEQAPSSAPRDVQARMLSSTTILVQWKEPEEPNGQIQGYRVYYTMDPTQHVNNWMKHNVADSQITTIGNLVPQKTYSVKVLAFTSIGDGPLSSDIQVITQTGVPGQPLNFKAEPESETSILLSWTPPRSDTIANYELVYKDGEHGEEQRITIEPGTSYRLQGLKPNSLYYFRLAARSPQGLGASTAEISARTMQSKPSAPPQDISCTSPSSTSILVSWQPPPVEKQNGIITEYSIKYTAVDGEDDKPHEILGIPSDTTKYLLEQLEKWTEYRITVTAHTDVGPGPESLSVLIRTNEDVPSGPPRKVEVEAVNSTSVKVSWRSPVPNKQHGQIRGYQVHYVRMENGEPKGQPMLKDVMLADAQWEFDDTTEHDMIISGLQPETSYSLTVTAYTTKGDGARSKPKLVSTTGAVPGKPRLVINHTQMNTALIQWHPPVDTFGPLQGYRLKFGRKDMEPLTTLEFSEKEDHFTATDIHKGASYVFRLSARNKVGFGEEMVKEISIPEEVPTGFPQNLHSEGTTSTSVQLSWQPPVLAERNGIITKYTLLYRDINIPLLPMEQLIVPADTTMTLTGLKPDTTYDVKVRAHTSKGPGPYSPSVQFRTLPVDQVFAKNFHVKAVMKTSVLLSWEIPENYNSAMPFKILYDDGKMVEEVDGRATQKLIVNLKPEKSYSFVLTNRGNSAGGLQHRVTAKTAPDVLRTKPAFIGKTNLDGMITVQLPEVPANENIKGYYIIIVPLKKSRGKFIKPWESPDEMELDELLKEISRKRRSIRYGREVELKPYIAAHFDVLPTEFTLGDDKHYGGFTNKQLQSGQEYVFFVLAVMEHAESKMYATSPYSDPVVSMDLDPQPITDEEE
The assay is described as follows: extracellular interaction screen: pentameric PTPRD variant ECD on ECD-Fc prey (FIG. 5L).

In assay [2] the target is T2, PTPRD R561Q variant extracellular domain (human, UniProt P23468 21-1265).
T2 construct: extracellular domain; also called FN3 mutant
T2 sequence (looked up): T1 sequence (looked up) with E265G, R541Q
The description is as above.

Residue numbers refer to the chain shown, from its start.

B1: LRRC4B extracellular domain (receptor, human, UniProt Q9NT99 36-576, looked up)
chain: AGGGGVAVTSAAGGGSPPATSCPVACSCSNQASRVICTRRDLAEVPASIPVNTRYLNLQENGIQVIRTDTFKHLRHLEILQLSKNLVRKIEVGAFNGLPSLNTLELFDNRLTTVPTQAFEYLSKLRELWLRNNPIESIPSYAFNRVPSLRRLDLGELKRLEYISEAAFEGLVNLRYLNLGMCNLKDIPNLTALVRLEELELSGNRLDLIRPGSFQGLTSLRKLWLMHAQVATIERNAFDDLKSLEELNLSHNNLMSLPHDLFTPLHRLERVHLNHNPWHCNCDVLWLSWWLKETVPSNTTCCARCHAPAGLKGRYIGELDQSHFTCYAPVIVEPPTDLNVTEGMAAELKCRTGTSMTSVNWLTPNGTLMTHGSYRVRISVLHDGTLNFTNVTVQDTGQYTCMVTNSAGNTTASATLNVSAVDPVAAGGTGSGGGGPGGSGGVGGGSGGYTYFTTVTVETLETQPGEEALQPRGTEKEPPGPTTDGVWGGGRPGDAAGPASSSTTAPAPRSSRPTEKAFTVPITDVTENALKDLDDVMKTTK
notes: extracellular domain; ECD-Fc prey; also called NGL-3; netrin-G ligand-3
Regarding B1, the binding result in assay [1] and in assay [2] was “no binding” throughout.
